Targets include EF2K (Homo sapiens, UniProt O00418); SIK2 (Homo sapiens, UniProt Q9H0K1); TESK1 (Homo sapiens, UniProt Q15569); RSK1 (Homo sapiens, UniProt Q15418); BTK (Homo sapiens, UniProt Q06187); CK1γ2 (Homo sapiens, UniProt P78368).
What all share (assay): Kinase panel residual activity
Holding throughout (type): biochemical
Conditions in all cases: compound at 1 micromolar

For the next series, the target named is T1, MKK6 (Homo sapiens, UniProt P52564).
T1 sequence (P52564 1-334): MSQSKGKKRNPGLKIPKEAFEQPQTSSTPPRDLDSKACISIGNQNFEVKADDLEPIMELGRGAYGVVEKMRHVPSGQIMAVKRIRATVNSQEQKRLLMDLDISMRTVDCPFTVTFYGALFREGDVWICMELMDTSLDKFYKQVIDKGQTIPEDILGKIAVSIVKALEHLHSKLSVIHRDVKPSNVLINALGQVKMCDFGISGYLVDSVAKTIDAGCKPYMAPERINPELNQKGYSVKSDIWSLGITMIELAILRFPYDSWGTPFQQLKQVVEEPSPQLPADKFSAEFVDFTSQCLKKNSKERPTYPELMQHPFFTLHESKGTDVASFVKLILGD

In another series the target is T2, NEK2a (Homo sapiens, UniProt P51955).
T2 sequence (P51955 1-445): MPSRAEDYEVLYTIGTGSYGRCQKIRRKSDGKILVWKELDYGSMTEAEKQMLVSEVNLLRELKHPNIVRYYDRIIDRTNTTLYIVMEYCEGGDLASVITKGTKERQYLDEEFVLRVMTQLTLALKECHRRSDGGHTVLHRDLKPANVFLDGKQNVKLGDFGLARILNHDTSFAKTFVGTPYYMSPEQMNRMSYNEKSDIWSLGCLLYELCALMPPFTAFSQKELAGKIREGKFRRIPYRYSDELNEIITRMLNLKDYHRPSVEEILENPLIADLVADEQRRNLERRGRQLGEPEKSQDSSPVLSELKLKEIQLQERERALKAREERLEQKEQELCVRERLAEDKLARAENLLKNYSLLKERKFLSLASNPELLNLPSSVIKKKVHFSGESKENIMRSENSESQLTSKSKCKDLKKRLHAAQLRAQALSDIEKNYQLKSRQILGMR

The next series concerns the target T3, DYRK3 (Homo sapiens, UniProt O43781).
T3 sequence (O43781 1-588): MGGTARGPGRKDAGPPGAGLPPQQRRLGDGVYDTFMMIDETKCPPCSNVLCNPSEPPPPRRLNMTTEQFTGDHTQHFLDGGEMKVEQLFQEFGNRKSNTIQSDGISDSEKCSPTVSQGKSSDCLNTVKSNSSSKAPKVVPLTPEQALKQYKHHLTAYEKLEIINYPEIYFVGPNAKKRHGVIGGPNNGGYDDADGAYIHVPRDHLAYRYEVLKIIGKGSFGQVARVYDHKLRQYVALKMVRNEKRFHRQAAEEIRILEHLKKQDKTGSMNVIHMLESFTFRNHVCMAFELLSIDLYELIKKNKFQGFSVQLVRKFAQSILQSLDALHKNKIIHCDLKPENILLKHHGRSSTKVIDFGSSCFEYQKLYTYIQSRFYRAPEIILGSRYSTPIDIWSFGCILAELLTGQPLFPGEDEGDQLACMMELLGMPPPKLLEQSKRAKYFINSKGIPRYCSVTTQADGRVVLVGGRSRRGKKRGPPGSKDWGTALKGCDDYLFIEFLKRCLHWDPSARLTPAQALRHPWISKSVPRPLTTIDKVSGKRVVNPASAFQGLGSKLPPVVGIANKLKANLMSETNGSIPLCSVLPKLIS

The target of a further series is T4, NUAK1 (Homo sapiens, UniProt O60285).
T4 sequence (O60285 1-661): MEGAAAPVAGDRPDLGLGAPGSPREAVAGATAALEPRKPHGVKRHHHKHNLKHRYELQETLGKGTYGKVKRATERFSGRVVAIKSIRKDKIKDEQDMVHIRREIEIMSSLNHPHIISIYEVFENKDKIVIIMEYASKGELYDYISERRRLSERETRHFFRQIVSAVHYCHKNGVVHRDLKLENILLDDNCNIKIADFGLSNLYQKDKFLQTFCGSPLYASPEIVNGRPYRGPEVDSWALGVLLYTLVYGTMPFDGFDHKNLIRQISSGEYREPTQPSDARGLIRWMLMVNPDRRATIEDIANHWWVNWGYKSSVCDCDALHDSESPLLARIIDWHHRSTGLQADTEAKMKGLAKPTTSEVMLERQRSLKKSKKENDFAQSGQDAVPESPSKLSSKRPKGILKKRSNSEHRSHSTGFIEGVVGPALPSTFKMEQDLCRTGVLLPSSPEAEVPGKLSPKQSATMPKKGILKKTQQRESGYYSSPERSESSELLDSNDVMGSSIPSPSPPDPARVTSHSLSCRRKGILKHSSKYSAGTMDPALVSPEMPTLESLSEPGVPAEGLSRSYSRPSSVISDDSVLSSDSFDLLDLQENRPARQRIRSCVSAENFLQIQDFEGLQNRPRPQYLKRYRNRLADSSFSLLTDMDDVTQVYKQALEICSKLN

Where a SMILES comes first, the peptide text is derived from it. [ ]: non-standard residue; d: D form. The star is where a group is joined. X1 = O=C(CCCCCCCn1cnc2c(Br)c(Br)c(Br)c(Br)c21)*

CK1γ2, sequence (P78368 whole entry): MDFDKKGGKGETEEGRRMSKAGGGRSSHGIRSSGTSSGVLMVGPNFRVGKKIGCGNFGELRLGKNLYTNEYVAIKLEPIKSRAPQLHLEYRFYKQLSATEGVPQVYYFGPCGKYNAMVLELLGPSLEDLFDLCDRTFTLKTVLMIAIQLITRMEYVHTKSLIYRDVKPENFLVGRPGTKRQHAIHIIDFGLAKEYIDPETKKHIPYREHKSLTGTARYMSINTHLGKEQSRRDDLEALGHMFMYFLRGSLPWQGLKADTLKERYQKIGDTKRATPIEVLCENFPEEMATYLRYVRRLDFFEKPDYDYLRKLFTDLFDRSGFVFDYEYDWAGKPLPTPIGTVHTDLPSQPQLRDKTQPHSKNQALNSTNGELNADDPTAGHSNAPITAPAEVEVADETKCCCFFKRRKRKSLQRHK
BTK, sequence (Q06187 whole entry, species assumed): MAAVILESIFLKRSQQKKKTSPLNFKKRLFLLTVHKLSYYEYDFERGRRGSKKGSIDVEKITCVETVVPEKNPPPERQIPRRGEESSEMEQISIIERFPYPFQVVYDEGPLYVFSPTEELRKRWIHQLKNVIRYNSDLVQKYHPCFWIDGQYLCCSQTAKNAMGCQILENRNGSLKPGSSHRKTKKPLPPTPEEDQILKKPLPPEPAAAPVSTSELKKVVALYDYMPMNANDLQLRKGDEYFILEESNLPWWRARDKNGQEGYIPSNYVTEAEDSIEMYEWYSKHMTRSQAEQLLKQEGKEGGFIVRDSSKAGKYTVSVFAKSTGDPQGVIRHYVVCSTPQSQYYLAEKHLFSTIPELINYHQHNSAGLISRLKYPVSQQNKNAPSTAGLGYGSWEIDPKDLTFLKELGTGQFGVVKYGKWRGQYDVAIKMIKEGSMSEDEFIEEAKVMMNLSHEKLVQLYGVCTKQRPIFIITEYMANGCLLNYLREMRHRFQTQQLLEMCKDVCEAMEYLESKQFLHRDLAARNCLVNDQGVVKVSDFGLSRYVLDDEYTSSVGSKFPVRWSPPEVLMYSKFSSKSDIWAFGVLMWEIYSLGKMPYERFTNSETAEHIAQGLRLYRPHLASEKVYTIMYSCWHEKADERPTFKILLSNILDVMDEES
RSK1, sequence (Q15418 whole entry, species assumed): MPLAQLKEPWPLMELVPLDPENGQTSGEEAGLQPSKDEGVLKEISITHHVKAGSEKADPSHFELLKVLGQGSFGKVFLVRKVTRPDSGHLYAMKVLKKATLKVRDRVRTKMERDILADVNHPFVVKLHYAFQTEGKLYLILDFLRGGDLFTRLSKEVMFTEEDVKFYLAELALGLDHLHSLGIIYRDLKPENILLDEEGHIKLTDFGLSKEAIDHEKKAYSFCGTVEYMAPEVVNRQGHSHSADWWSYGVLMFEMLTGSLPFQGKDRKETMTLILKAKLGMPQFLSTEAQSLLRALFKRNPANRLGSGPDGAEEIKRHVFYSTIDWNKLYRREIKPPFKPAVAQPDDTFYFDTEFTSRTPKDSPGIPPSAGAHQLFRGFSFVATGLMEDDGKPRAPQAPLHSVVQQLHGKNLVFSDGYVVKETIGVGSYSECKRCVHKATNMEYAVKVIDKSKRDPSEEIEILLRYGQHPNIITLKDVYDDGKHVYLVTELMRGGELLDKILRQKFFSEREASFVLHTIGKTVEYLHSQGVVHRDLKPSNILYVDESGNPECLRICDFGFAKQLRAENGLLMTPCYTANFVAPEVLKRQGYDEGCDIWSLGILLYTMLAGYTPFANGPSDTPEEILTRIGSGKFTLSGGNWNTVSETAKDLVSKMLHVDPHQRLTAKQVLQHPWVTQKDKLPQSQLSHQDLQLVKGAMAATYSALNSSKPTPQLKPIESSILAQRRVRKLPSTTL
EF2K, sequence (O00418 whole entry): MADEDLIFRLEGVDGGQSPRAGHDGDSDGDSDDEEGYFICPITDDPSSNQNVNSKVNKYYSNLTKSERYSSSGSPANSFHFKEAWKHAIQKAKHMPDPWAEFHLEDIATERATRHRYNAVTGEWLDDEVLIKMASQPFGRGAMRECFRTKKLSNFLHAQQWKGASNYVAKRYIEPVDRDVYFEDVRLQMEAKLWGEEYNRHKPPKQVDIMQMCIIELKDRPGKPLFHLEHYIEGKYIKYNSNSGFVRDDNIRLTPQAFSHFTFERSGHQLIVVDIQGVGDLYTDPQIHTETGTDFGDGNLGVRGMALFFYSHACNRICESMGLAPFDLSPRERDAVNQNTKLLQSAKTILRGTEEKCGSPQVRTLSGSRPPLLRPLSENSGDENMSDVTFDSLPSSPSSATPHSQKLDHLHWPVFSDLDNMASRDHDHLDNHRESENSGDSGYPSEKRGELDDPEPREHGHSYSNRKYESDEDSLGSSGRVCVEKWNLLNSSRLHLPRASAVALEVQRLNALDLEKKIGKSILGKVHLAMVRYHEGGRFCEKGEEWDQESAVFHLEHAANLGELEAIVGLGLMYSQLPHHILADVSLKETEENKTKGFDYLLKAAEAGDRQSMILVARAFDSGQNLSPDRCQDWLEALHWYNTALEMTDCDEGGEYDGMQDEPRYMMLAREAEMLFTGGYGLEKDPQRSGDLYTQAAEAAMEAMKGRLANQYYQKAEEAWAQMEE
SIK2, sequence (Q9H0K1 whole entry, species assumed): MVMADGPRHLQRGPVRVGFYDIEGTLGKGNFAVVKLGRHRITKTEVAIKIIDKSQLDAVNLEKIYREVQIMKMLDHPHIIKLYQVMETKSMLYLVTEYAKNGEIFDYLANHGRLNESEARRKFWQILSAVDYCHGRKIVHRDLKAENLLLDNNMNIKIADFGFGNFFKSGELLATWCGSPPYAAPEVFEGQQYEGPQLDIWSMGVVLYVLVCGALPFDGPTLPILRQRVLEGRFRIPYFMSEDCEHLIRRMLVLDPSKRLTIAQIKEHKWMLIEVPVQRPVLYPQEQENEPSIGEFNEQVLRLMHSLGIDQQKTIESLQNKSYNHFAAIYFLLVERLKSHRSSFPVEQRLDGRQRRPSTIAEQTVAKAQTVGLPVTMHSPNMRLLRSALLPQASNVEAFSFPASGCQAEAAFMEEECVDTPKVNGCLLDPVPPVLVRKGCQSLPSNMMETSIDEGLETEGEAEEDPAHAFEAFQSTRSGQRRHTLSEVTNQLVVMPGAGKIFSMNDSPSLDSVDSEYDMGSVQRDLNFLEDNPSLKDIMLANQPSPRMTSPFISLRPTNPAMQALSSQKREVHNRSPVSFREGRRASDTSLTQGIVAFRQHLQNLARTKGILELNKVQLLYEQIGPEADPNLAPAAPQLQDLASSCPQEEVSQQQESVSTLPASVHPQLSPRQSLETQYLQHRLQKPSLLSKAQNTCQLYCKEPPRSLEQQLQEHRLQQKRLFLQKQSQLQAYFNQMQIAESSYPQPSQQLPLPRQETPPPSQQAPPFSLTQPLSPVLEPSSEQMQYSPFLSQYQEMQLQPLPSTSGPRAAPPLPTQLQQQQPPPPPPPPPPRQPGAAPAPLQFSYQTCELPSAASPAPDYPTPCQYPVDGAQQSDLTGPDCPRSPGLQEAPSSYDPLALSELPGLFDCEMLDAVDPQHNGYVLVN
TESK1, sequence (Q15569 whole entry, species assumed): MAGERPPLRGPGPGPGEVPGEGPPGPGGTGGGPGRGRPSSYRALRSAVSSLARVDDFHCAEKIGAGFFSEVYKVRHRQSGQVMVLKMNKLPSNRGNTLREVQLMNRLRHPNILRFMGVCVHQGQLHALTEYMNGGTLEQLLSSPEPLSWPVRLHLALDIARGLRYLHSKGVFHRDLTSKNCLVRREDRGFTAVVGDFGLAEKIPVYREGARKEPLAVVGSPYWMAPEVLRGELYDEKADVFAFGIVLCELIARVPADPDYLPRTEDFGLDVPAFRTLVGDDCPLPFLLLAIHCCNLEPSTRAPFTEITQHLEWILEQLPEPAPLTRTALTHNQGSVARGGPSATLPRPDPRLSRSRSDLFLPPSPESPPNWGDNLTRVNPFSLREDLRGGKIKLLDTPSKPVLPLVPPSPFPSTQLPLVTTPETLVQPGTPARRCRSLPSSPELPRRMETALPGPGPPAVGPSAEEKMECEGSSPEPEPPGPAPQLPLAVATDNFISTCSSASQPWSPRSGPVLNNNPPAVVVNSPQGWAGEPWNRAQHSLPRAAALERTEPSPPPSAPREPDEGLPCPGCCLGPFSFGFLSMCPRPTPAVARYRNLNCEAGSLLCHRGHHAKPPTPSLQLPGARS

As a reminder, the remaining activity is the share of the control activity or signal that is left under treatment. Low values mean a large loss of activity, high ones a small loss of activity. Take `NCCCC[C@H](NC(=O)[C@H](CC(=O)O)NC(=O)[C@H](CC(=O)O)NC(=O)[C@H](CC(=O)O)NC(=O)[C@H](CC(=O)O)NC(=O)[C@H](CC(=O)O)NC(=O)[C@@H](CC(=O)O)NC(=O)CCCCCCCn1cnc2c(Br)c(Br)c(Br)c(Br)c21)C(=O)O` [TBBI-OcA-(D-Asp)-(L-Asp)5-(L-Lys)-OH] (X1-[dD]DDDDDK-OH): the remaining activity at 1 µM in the series with EF2K was 80%; with SIK2 it was 74%; with TESK1, 81%; with MKK6, 82%; with NEK2a, 94%; in the series with DYRK3, 30%. Also, the remaining activity at 1 µM is 88% in the series with RSK1, 80% with BTK, 71% in the series with CK1γ2 and 58% with NUAK1.

The values are drawn from patent US9176064B2, “Bisubstrate fluorescent probes for protein kinase CK2” (University of Tartu, priority 2012, dated 2015).
